{
  "source": "paper PMC4853763",
  "molecular_target": "E6/e6ap complex with the wt e6ap(1-16) peptide construct (HPV16 | human) (UniProt P03126)",
  "test": "ITC",
  "data": [
    {"substance": "p53 core (DNA binding) domain (from UniProt P04637 94-311) (domain or fragment)", "values": [
      {"measurement": "dH", "result": -19.1, "unit": "kcal/mol"},
      {"measurement": "stoichiometry N", "result": 0.516}
    ]}
  ]
}
